A word on the KD: it is the concentration at which binding is half-saturated. High values mean weaker binding, low ones tighter binding.

Experimental findings from patent publication US20260116920A1 (PEPTIDREAM, published 2026) are described below.

Starred links: 1 amine or outer side, 2 acyl side, 3 side chain; linkers in the order of their positions; H or OH if unused. Positions of bridges follow the written chain, without caps; N, C: chain ends. Non-standard residues stand in square brackets, D forms with d. Primed or numbered codes have the meaning given here. No end group written: not given here. *: point of attachment. MePEG4c″ = K(MePEG4c) = (S)-20-amino-14-oxo-2,5,8,11-tetraoxa-15-azahenicosane-21-oic acid (Lys side chain acylated with methoxy-PEG4 acid), COCCOCCOCCOCCC(=O)*; E(PEG8Me) = (S)-30-amino-27-oxo-2,5,8,11,14,17,20,23-octaoxa-26-azahentriacontane-31-oic acid, COCCOCCOCCOCCOCCOCCOCCOCCNC(=O)CC[C@H](N[*:1])C(=O)[*:2]; F4aao = (S)-2-amino-3-(4-(carboxymethoxy)phenyl)propanoic acid, O=C([C@H](Cc1ccc(OCC(=O)[*:3])cc1)N[*:1])[*:2]; MePEG4c = K(MePEG4c) = (S)-20-amino-14-oxo-2,5,8,11-tetraoxa-15-azahenicosane-21-oic acid, COCCOCCOCCOCCC(=O)*; Phe(4-OMe)″ = (S)-2-amino-3-(4-methoxyphenyl)propanoic acid (F4OMe), COc1ccc(C[C@H](N[*:1])C(=O)[*:2])cc1; Phe(4-OMe) = F4OMe = (S)-2-amino-3-(4-methoxyphenyl)propanoic acid, COc1ccc(C[C@H](N[*:1])C(=O)[*:2])cc1; Trp(1-CH2CO) = O=C([C@H](Cc1cn(CC(=O)[*:3])c2ccccc12)N[*:1])[*:2]; Trp(5-Cl) = N[C@@H](Cc1c[nH]c2ccc(Cl)cc12)C(=O)O; Phe(3-COOH) = N[C@@H](Cc1cccc(C(=O)O)c1)C(=O)O; NMePhe(3-Cl) = CN[C@@H](Cc1cccc(Cl)c1)C(=O)O; NMePhe(4-F) = CN[C@@H](Cc1ccc(F)cc1)C(=O)O; 3Pal(6-NH2) = Nc1ccc(C[C@H](N)C(=O)O)cn1; NMeW = CN[C@@H](Cc1c[nH]c2ccccc12)C(=O)O; NMe3Pal = CN[C@@H](Cc1cccnc1)C(=O)O; NMe4Pal = CN[C@@H](Cc1ccncc1)C(=O)O; NMeY = CN[C@@H](Cc1ccc(O)cc1)C(=O)O; NMeR = CN[C@@H](CCCNC(=N)N)C(=O)O; NMeF = CN[C@@H](Cc1ccccc1)C(=O)O; 3Pal = N[C@@H](Cc1cccnc1)C(=O)O; 4Pal = N[C@@H](Cc1ccncc1)C(=O)O; NMeA = CN[C@@H](C)C(=O)O

The assay deals with T1, human transferrin receptor (hTfR) (human, UniProt P02786 89-760).
T1 construct: used as 0.5 uM hTfR dimer solution, immobilised on an NTA sensor chip (Ni capture plus EDC/NHS coupling); also called human TfR; TfR1
T1 sequence (P02786 89-760 limits assumed): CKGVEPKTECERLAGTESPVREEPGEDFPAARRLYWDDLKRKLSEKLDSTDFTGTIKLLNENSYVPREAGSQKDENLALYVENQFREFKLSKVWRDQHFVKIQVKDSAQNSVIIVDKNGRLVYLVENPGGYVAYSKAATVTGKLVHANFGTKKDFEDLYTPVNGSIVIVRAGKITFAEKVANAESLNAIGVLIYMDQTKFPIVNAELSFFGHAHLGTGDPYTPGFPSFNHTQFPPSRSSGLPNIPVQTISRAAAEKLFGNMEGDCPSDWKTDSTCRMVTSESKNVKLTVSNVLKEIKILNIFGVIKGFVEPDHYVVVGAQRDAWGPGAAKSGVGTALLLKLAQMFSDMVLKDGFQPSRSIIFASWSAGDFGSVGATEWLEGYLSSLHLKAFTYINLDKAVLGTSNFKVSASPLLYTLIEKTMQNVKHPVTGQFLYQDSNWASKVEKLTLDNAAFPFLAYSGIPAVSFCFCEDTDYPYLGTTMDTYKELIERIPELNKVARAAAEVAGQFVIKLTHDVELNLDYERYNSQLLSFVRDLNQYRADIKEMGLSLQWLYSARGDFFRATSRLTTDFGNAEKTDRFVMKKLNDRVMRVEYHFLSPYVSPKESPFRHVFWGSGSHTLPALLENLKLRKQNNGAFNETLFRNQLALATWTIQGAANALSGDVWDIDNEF
Kind of assay: SPR; B = KD 1-100 nM. As to the method: NTA sensor chip (Global Life Sciences Technologies Japan K.K.) was inserted into BiacoreT200 (Global Life Sciences Technologies Japan K.K.), then the priming operation was performed three times by using running buffer containing: 10 mM HEPES pH 8.0 (Nacalai Tesque, Inc.), 150 mM NaCl (Nacalai Tesque, Inc.), 0.05% Tween 20 (Nacalai Tesque, Inc.), 0.1% BSA (SIGMA-ALDRICH) and 1.0% DMSO (FUJIFILM Wako Pure Chemical Corporation), and equilibrated at a flow rate of 30 μL/min. 350 mM EDTA solution was reacted at a flow rate of 10 μL/min for 60 seconds, 0.5 mM […] solution (Kishida Chemical Co., Ltd.) was reacted at a flow rate of 10 μL/min for 60 seconds, and then the NTA sensor chip was washed with 3 mM EDTA solution (Nacalai Tesque, Inc.) at a flow rate of 10 μL/min for 60 seconds. After mixing 50 μL each of 60 mM EDC solution (Global Life Science Technologies Japan K.K.) and 650 mM NHS solution (Global Life Science Technologies Japan K.K.), the reaction was carried out at a flow rate of 10 μL/min for 420 seconds. 150 μL of 0.5 μM hTfR dimer solution was prepared by dilution with running buffer and reacted at a flow rate of 10 μL/min for 300 seconds to immobilize hTfR on the NTA sensor chip. For the human transferrin receptor (hTfR), recombinant hTfR described in Example 2 of WO2018/124121 was used. After immobilization, capping was performed by reacting with 1.0 M ethanolamine solution (Global Life Sciences Technologies Japan K.K.) at a flow rate of 10 μL/min for 420 seconds. Peptide lysate prepared in DMSO solution to 10 mM was diluted with running buffer to be a final concentration of 10 μM peptide lysate, then peptide solutions of 100 nM, 50 nM, 25 nM, 10 nM, and 5 nM were prepared. Using the above samples, the kinetics of the peptide against hTfR was obtained by SPR measurement.
The kinetic evaluation model was single-cycle kinetics, and curve fitting was performed using Biacore T200 Evaluation Software Version 3.0 (Global Life Science Technologies Japan K.K.). The binding of the peptide to hTfR was evaluated by performing curve fitting on the obtained sensorgram by least squares method and obtaining the KD value.

B1: 894_0268 (peptide)
peptide: {CH2CO}-AV[NMePhe(4-F)]V[Trp(5-Cl)]NY[Phe(4-OMe)]II[NMeR]K(MePEG4c)FYC-NH2
modifications: thioether N-15; not fully specified (residue 14)
Turning to B1, the KD fell in the range of 1 to 100 nM.

B2: 894_0303 (peptide)
peptide: {CH2CO}-AV[NMePhe(3-Cl)]V[Trp(1-CH2CO)]NY[F4aao]IIRQF[NMeY]C
modifications: thioether N-15; not fully specified (C-terminus)
B2 showed a KD of 1 to 100 nM.

B3: 894_0316 (peptide)
peptide: {CH2CO}-AV[NMe3Pal]VWNY[Phe(4-OMe)″]IIRR[4Pal][NMeY]C-NH2
modifications: thioether N-15; also: linker PEG4c
The molecule B3 registered a KD of 1 to 100 nM.

B4: 894_0312 (peptide)
peptide: {CH2CO}-AV[NMePhe(3-Cl)]VWNY[4Pal]IIRR[4Pal][NMeY]C-NH2
modifications: thioether N-15; also: linker PEG4c
B4 showed a KD of 1 to 100 nM.

B5: 894_0296 (peptide)
peptide: {CH2CO}-AV[NMeF]VWNY[F4aao]IIRRYYC-NH2
modifications: thioether N-15; not fully specified (residue 14); also: linker PEG4c
Molecule B5 returned a KD of 1 to 100 nM.

B6: 894_0311 (peptide)
peptide: {CH2CO}-AV[NMePhe(3-Cl)]VWN[3Pal(6-NH2)][Phe(4-OMe)″]IIRR[4Pal][NMeY]C-NH2
modifications: thioether N-15; also: linker PEG4c
Molecule B6 showed a KD of 1 to 100 nM.

B7: 894_0287 (peptide)
peptide: {CH2CO}-[NMeA]V[NMePhe(3-Cl)]V[NMeW]NY[Phe(4-OMe)]IIR[dA]FYC-NH2
modifications: thioether N-15; not fully specified (residue 14); also: linker PEG4c
B7 returned a KD of 1 to 100 nM.

B8: 894_0270 (peptide)
peptide: {CH2CO}-AV[NMePhe(4-F)]V[NMeW]NY[Phe(4-OMe)]IIK(MePEG4c″)[dR]FYC-NH2
modifications: thioether N-15; not fully specified (residue 14)
Take B8: the KD was 1 to 100 nM.

B9: 894_0314 (peptide)
peptide: {CH2CO}-AV[NMe4Pal]VWNY[Phe(4-OMe)″]IIRRF[NMeY]C-NH2
modifications: thioether N-15; also: linker PEG4c
B9 yielded a KD of 1 to 100 nM.

B10: 894_0282 (peptide)
peptide: {CH2CO}-AV[NMeF]VWNYYIIR[dR]FYC-NH2
modifications: thioether N-15; not fully specified (residue 14); also: linker PEG4c
B10: the KD was 1 to 100 nM.

B11: 894_0282 (peptide)
peptide: {CH2CO}-AV[NMeF]VWNYYIIR[dR]FYC-NH2
modifications: thioether N-15; not fully specified (residue 14); also: linker PEG4c
As for B11, the KD fell in the range of 1 to 100 nM.

B12: 894_0310 (peptide)
peptide: {CH2CO}-AV[NMePhe(3-Cl)]VWN[3Pal(6-NH2)][3Pal]IIRR[4Pal][NMeY]C-NH2
modifications: thioether N-15; also: linker PEG4c
Regarding B12, the KD lay in the range of 1 to 100 nM.

B13: 894_0313 (peptide)
peptide: {CH2CO}-AV[NMe3Pal]VWNY[Phe(4-OMe)″]IIRRF[NMeY]C-NH2
modifications: thioether N-15; also: linker PEG4c
B13 registered a KD of 1 to 100 nM.

B14: 894_0302 (peptide)
peptide: {CH2CO}-AV[NMePhe(3-Cl)]V[Trp(1-CH2CO)]NY[F4aao]IIQRF[NMeY]C
modifications: thioether N-15; not fully specified (C-terminus)
For B14, the KD is 1 to 100 nM.

B15: 894_0309 (peptide)
peptide: {CH2CO}-AV[NMePhe(3-Cl)]VWNY[3Pal]IIRR[4Pal][NMeY]C
modifications: thioether N-15; not fully specified (C-terminus)
For B15, the KD was in the range of 1 to 100 nM.

B16: 894_0269 (peptide)
peptide: {CH2CO}-AV[NMePhe(4-F)]V[NMeW]NYYIIK(MePEG4c″)[dR]FYC-NH2
modifications: thioether N-15; not fully specified (residue 14)
In the case of B16, the KD lay in the range of 1 to 100 nM.

B17: 894_0297 (peptide)
peptide: {CH2CO}-AV[NMeF]V[Trp(1-CH2CO)]NY[F4aao]IIRRYYC-NH2
modifications: thioether N-15; not fully specified (residue 14); also: linker PEG4c
For the molecule B17, the KD lay in the range of 1 to 100 nM.

B18: 894_0315 (peptide)
peptide: {CH2CO}-AV[NMePhe(3-Cl)]VWN[3Pal(6-NH2)][Phe(4-OMe)″]IIRRF[NMeY]C-NH2
modifications: thioether N-15; also: linker PEG4c
With B18, the KD is 1 to 100 nM.

B19: 894_0299 (peptide)
peptide: {CH2CO}-AV[NMePhe(3-Cl)]V[Trp(1-CH2CO)]NY[F4aao]IIR[E(PEG8Me)]F[NMeY]C
modifications: thioether N-15; not fully specified (C-terminus)
Turning to B19, the KD fell in the range of 1 to 100 nM.

B20: 894_0284 (peptide)
peptide: {CH2CO}-AV[NMeF]VWNYYII[NMeR]RFYC-NH2
modifications: thioether N-15; not fully specified (residue 14); also: linker PEG4c
As for B20, the KD was 1 to 100 nM.

B21: 894_0318 (peptide)
peptide: {CH2CO}-AV[NMePhe(3-Cl)]VWNY[3Pal]IIRRF[NMeY]C
modifications: thioether N-15; not fully specified (C-terminus)
Regarding B21, the KD fell in the range of 1 to 100 nM.

B22: 894_0306 (peptide)
peptide: {CH2CO}-AV[NMePhe(3-Cl)]V[Trp(1-CH2CO)]NY[3Pal]IIRR[4Pal][NMeY]C
modifications: thioether N-15; not fully specified (C-terminus)
Molecule B22 yielded a KD of 1 to 100 nM.

B23: 894_0272 (peptide)
peptide: {CH2CO}-AV[NMePhe(4-F)]V[NMeW]NY[Phe(4-OMe)]II[NMeR]K(MePEG4c″)FYC-NH2
modifications: thioether N-15; not fully specified (residue 14)
Regarding B23, the KD is 1 to 100 nM.

B24: 894_0284 (peptide)
peptide: {CH2CO}-AV[NMeF]VWNYYII[NMeR]RFYC-NH2
modifications: thioether N-15; not fully specified (residue 14); also: linker PEG4c
As for B24, the KD is 1 to 100 nM.

B25: 894_0271 (peptide)
peptide: {CH2CO}-AV[NMePhe(4-F)]V[NMeW]NYYII[NMeR]K(MePEG4c″)FYC-NH2
modifications: thioether N-15; not fully specified (residue 14)
Regarding B25, the KD fell in the range of 1 to 100 nM.

B26: 894_0308 (peptide)
peptide: {CH2CO}-AV[NMePhe(3-Cl)]V[Trp(1-CH2CO)]N[3Pal(6-NH2)][Phe(4-OMe)″]IIRR[4Pal][NMeY]C
modifications: thioether N-15; not fully specified (C-terminus)
On to B26, for which the KD was in the range of 1 to 100 nM.

B27: 894_0301 (peptide)
peptide: {CH2CO}-AV[NMePhe(3-Cl)]V[Trp(1-CH2CO)]NY[F4aao]II[E(PEG8Me)]R[Phe(3-COOH)][NMeY]C
modifications: thioether N-15; not fully specified (C-terminus)
B27 displayed a KD of 1 to 100 nM.

B28: 894_0307 (peptide)
peptide: {CH2CO}-AV[NMePhe(3-Cl)]V[Trp(1-CH2CO)]N[3Pal(6-NH2)][3Pal]IIRR[4Pal][NMeY]C
modifications: thioether N-15; not fully specified (C-terminus)
B28 gave a KD of 1 to 100 nM.

B29: 894_0298 (peptide)
peptide: {CH2CO}-AV[NMePhe(3-Cl)]V[Trp(1-CH2CO)]NY[F4aao]II[E(PEG8Me)]RF[NMeY]C
modifications: thioether N-15; not fully specified (C-terminus)
Molecule B29 registered a KD of 1 to 100 nM.
